One assay addresses T1, 4H4073-bN.
T1 chain: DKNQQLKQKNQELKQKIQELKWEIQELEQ
Put plainly: two-hybrid library CCNG1.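 Further: natural log of median RNA to DNA barcode read ratio; higher means stronger binding.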

A further assay deals with T2, 4H953-bN.
T2 chain: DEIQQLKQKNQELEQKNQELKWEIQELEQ
Nature of the assay: two-hybrid library CCNG1.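 Further: natural log of median RNA to DNA barcode read ratio; higher means stronger binding.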

The next assay concerns the target T3, 4H918-bN.
T3 chain: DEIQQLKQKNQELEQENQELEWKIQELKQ
Put plainly: two-hybrid library CCNG1.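 Further: natural log of median RNA to DNA barcode read ratio; higher means stronger binding.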

A further assay addresses T4, 4H797-bN.
T4 chain: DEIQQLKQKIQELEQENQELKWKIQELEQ
Put plainly: two-hybrid library CCNG1.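 Further: natural log of median RNA to DNA barcode read ratio; higher means stronger binding.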

A further assay has as its target T5, 4H754-bN.
T5 chain: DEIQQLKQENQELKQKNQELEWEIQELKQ
Put plainly: two-hybrid library CCNG1.

A further assay has as its target T6, 4H457-bN.
T6 chain: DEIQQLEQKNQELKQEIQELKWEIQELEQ
Nature of the assay: two-hybrid library CCNG1.

The next assay deals with T7, 4H683-bN.
T7 chain: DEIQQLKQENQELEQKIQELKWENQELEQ
Put plainly: two-hybrid library CCNG1.

The next assay deals with T8, 4H968-bN.
T8 chain: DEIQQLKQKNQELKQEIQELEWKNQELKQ
Nature of the assay: two-hybrid library CCNG1.

In a further assay the target is T9, 4H575-bN.
T9 chain: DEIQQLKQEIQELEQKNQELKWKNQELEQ
Nature of the assay: two-hybrid library CCNG1.

For another assay, the target named is T10, 4H855-bN.
T10 chain: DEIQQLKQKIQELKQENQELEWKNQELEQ
Nature of the assay: two-hybrid library CCNG1.

For another assay, the target named is T11, 4H780-bN.
T11 chain: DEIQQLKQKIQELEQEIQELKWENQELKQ
Nature of the assay: two-hybrid library CCNG1.

Another assay has as its target T12, APC8401-AA.
T12 chain: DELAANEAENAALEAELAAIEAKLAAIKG
Put plainly: two-hybrid library CCmax. Particulars: mean of both orientations.

A further assay addresses T13, APC5531-AA.
T13 chain: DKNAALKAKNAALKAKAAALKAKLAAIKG
Nature of the assay: two-hybrid library CCmax. The note with it: mean of both orientations.

In a further assay the target is T14, APC6088-AA.
T14 chain: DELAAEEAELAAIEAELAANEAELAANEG
Put plainly: two-hybrid library CCmax. The note with it: mean of both orientations.

For a further assay, the target named is T15, APC9141-AA.
T15 chain: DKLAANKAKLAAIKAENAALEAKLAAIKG
Put plainly: two-hybrid library CCmax. Particulars: mean of both orientations.

The next assay addresses T16, APC4336-AA.
T16 chain: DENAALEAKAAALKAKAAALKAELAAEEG
Put plainly: two-hybrid library CCmax. Particulars: mean of both orientations.

For the next assay, the target named is T17, APC4100-AA.
T17 chain: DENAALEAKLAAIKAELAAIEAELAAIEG
Put plainly: two-hybrid library CCmax. Particulars: mean of both orientations.

For the next assay, the target named is T18, APC9291-AA.
T18 chain: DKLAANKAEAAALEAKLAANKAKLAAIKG
Put plainly: two-hybrid library CCmax. Particulars: mean of both orientations.

The next assay concerns the target T19, APC5009-AA.
T19 chain: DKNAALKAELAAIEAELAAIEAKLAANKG
Put plainly: two-hybrid library CCmax.

For another assay, the target named is T20, APC9806-AA.
T20 chain: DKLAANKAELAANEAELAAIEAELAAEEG
Nature of the assay: two-hybrid library CCmax. The note with it: mean of both orientations.

A further assay addresses T21, APC8516-AA.
T21 chain: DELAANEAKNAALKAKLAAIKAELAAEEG
Put plainly: two-hybrid library CCmax. The note with it: mean of both orientations.

The target in a further assay is T22, APC542-AA.
T22 chain: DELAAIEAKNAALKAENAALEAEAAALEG
Put plainly: two-hybrid library CCmax. Particulars: mean of both orientations.

For a further assay, the target named is T23, APC7524-AA.
T23 chain: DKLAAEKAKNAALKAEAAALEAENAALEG
Put plainly: two-hybrid library CCmax. Particulars: mean of both orientations.

Another assay addresses T24, APC3881-AA.
T24 chain: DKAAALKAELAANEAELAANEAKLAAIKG
Put plainly: two-hybrid library CCmax.

In a further assay the target is T25, APC9182-AA.
T25 chain: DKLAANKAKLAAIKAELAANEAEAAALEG
Put plainly: two-hybrid library CCmax. The note with it: mean of both orientations.

The next assay deals with T26, 4H918-bA.
T26 chain: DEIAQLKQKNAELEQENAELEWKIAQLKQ
Put plainly: two-hybrid library CCNG1.

For another assay, the target named is T27, 4H687-bA.
T27 chain: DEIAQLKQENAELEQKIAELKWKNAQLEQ
Put plainly: two-hybrid library CCNG1.

In a further assay the target is T28, 4H797-bA.
T28 chain: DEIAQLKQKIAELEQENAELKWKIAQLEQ
Put plainly: two-hybrid library CCNG1.

Another assay deals with T29, 4H908-bA.
T29 chain: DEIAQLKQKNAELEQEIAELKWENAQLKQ
Nature of the assay: two-hybrid library CCNG1.

The target in a further assay is T30, 4H717-bA.
T30 chain: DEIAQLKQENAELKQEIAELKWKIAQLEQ
Put plainly: two-hybrid library CCNG1.

The next assay concerns the target T31, 4H607-bA.
T31 chain: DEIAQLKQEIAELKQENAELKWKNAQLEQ
Put plainly: two-hybrid library CCNG1.

The next assay has as its target T32, 4H568-bA.
T32 chain: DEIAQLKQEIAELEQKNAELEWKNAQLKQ
Put plainly: two-hybrid library CCNG1.

The target of another assay is T33, 4H967-bA.
T33 chain: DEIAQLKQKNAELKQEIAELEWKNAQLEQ
Nature of the assay: two-hybrid library CCNG1.

For another assay, the target named is T34, 4H953-bA.
T34 chain: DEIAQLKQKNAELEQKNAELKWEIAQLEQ
Nature of the assay: two-hybrid library CCNG1.

For the next assay, the target named is T35, 4H754-bA.
T35 chain: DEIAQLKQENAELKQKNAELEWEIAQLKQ
Put plainly: two-hybrid library CCNG1.

A further assay addresses T36, 4H462-bA.
T36 chain: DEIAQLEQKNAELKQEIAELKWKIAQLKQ
Put plainly: two-hybrid library CCNG1.

The next assay addresses T37, 4H883-bA.
T37 chain: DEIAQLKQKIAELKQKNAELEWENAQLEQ
Put plainly: two-hybrid library CCNG1.

Another assay has as its target T38, 4H72-bA.
T38 chain: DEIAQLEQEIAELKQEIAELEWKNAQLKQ
Put plainly: two-hybrid library CCNG1.

Another assay has as its target T39, 4H454-bA.
T39 chain: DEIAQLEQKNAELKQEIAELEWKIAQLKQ
Put plainly: two-hybrid library CCNG1.

For another assay, the target named is T40, 4H4001-bA.
T40 chain: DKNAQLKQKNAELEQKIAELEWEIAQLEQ
Nature of the assay: two-hybrid library CCNG1.

Another assay deals with T41, 4H591-bN.
T41 chain: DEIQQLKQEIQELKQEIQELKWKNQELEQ
Nature of the assay: two-hybrid library CCNG1.

The next assay deals with T42, 4H626-bN.
T42 chain: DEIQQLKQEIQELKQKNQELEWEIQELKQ
Nature of the assay: two-hybrid library CCNG1.

In a further assay the target is T43, 4H3926-bN.
T43 chain: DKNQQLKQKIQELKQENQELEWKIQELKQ
Put plainly: two-hybrid library CCNG1. The note with it: mean of both orientations.

The target in another assay is T44, 4H906-bN.
T44 chain: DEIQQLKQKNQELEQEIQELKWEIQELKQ
Nature of the assay: two-hybrid library CCNG1.

As for DKNQQLKQKNQELKQKIQELKWEIQELEQ [4H4073-bN], the interaction score with 4H4073-bN is -1.77; in the assay with 4H953-bN, -1.56; with 4H918-bN, -0.772; with 4H797-bN, -0.921; with 4H754-bN it was -1.18; in the assay with 4H457-bN, -0.816. Besides, the interaction score with 4H683-bN was -1.31; with 4H968-bN it was -1.13; with 4H575-bN, -1.72; with 4H855-bN, -0.729; with 4H780-bN it was -0.882.

As to DKAAALKAELAANEAELAANEAKLAAIKG [APC3881-AA], the interaction score with APC8401-AA is -1.61; with APC5531-AA, -1.92; in the assay with APC6088-AA it was -1.78; with APC9141-AA, -1.38; in the assay with APC4336-AA, -1.5; with APC4100-AA it was -1.25. Also, the interaction score with APC9291-AA is -2.12; with APC5009-AA it was -1.15; in the assay with APC9806-AA, -1.72; with APC8516-AA, -1.39; with APC542-AA, -1.63; with APC7524-AA it was -1.49. The interaction score in the assay with APC3881-AA was -1.67; with APC9182-AA, -1.63.

In the case of DKNAQLKQKNAELEQKIAELEWEIAQLEQ [4H4001-bA], the interaction score was -1.15 with 4H918-bA; -1.34 in the assay with 4H687-bA; -1.28 in the assay with 4H797-bA; -0.992 in the assay with 4H908-bA; -2.02 in the assay with 4H717-bA; -1.34 in the assay with 4H607-bA. The interaction score with 4H568-bA is -1.47; with 4H967-bA it was -1.03; with 4H953-bA, -1.52; with 4H754-bA, -1.03; with 4H462-bA, -0.0948; with 4H883-bA it was -0.688. Also, the interaction score in the assay with 4H72-bA was -1.27; with 4H454-bA, 1.01; in the assay with 4H4001-bA, -0.927.

In the case of DKNQQLKQKIQELKQENQELEWKIQELKQ [4H3926-bN], the interaction score with 4H4073-bN was -1.26; with 4H953-bN it was -0.788; in the assay with 4H918-bN, -2.11; in the assay with 4H797-bN, -0.358; with 4H754-bN, -0.867; with 4H591-bN, 0.172. Further, the interaction score in the assay with 4H457-bN was 1.06; with 4H626-bN it was -0.388; in the assay with 4H683-bN, -1.15; with 4H968-bN, -0.934; in the assay with 4H3926-bN, -0.623; with 4H575-bN it was 0.813. Further, the interaction score with 4H855-bN is -0.684; with 4H780-bN, -0.772; with 4H906-bN, -0.529.

The values above are taken from paper PMC10397247.
